Results taken from IntAct's records for PubMed 15028672.

Molecular target: crx_bovin CRX (UniProt Q9XSK0)
Sequence (Q9XSK0 whole entry): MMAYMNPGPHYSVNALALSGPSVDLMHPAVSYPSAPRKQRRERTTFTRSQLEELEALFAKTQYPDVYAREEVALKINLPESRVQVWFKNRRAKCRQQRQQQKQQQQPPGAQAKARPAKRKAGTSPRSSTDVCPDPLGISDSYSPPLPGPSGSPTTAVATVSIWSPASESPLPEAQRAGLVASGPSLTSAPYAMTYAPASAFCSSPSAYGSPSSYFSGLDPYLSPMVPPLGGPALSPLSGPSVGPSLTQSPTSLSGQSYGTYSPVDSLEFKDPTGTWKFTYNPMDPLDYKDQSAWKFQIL

Chain of Retina and anterior neural fold homeobox protein 2 (Bos taurus (Bovine)), Q7YRX0 G137R (Q7YRX0 whole entry G137R): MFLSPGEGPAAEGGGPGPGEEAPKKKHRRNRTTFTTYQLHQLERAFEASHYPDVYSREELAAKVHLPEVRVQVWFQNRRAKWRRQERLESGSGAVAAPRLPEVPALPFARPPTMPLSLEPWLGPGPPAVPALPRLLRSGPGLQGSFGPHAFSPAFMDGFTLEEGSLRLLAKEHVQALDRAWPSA

Substance: Retina and anterior neural fold homeobox protein 2 (Bos taurus (Bovine)), Q7YRX0 G137R
- effect of a mutation on the interaction: decreasing interaction
